Assay: yeast display, Sf9 membrane polyspecificity reagent, FACS + sequencing; frameworks hold sequencing errors
Procedure, shortened: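 Sorting gates, low and high (top ~1%), were placed on anti-HA fluorescence to track expression and on streptavidin fluorescence to track reagent binding. A clone's polyreactivity label is taken from the gate it came out of. The reagent was 10% biotinylated, detergent-solubilized Sf9 membrane, applied for 1 hour at 4 °C to galactose-induced yeast display cells.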

Sequence	polyreactivity (PSR sort gate)
QVQLVESGGGLVQAGGSLRLSCAASGSIFTGNTMGWYRQAPGKERELVAAISRRGGRTYYADSVKGRFTISRDNAKNTVYLQMNSLKPEDTAVYYCAALGRDSTPHGYWGQGTQVTVSS	high polyreactivity
QVQLVESGGGLVQAGGSLRLSCAASGITIPYNAMGWYRQAPGKERELVAVISWSGGSTYYADSVKGRFTISRDNAKNTVYLQMNRQKPEDTAFYYCAAEPGGGYYYWGQGTKVTVSS	low polyreactivity
QVQLVESGGGLVQAGGSLRLSCAASGSIFGGYAMGWYRQAPGKEREFVAAISRRGASTYYADSVKGRFTISRDNAKNTVYLQMNSLKPEDTAVYYCNARAYGRIDGHSATYGYWGQGTQVTVSS	high polyreactivity
QVQLVESGGGLVQAGGSLRLSCAASGIIFSIYAMGWYRQAPGKERELVAVISRSSGSTYYADSVKGRFTISRDNAKNTVYLQMNSLKPEDTAVYYCAADRYSYGSNGYPRFEYYYWGQGTQVTVSS	high polyreactivity
QVQLQERGGGLVQAGGTLRLSCAASGSFSADEDMGWYRQAQGKEREFVAGISVGGNTNYADSVKGRFTISRENAKNTVYLQINSLKPEDTAVYYCAVLQDVYDALDYWAQGTQVTVSS	high polyreactivity
QVQIVESAAGIVQAGGSLRLSCAASGSIFLLYAIGWYRQAPGKEMEFVAAITRGGGSTYYADSVKGRFTISRDNEKNIDYLQINSLIPEDTAVYYWYKGFQYHNGSLVVAYDYWGQGTQVTVSS	low polyreactivity
QVQLVESGGGLVQAGGSLRLSCAASGRTFFVYAMGWYRPAPGKERELVASITLSGGSTYYADSVKGRFTISRDKAKNTVYLQINSLKREDTAGYYCAKGWSRDNDLEREDEYWGHGTQVTVSS	low polyreactivity
QVQLVESGGGVVQAGGSLRLSCAASGYIYLVYAMGWYRQATGKETELVAAISSGGSTYYADSVKGRFTISRDNAKNTVYLQMNSLKPEDTSVYYCATAGLALYAFRDDYWGQGTQVTVSS	low polyreactivity
QVQLVESGGGIVQAGGSLRLSCAASGITIYKYAMGWYRQAPGKERELLAAITRGGSTYYADSVKGRFTISRDNAKNTVYLQMNSLNPEDTAVYYCNKVYHWQTPGFGYGYWGQGTQVTVSS	high polyreactivity
QVQLVESGGGLVQAGGSLRLSCAASGLIFYWNAMGWYRQAPGKERELVAGITSGGDTNYADSVKGRFTISRDNAKNTVYLQMNSLKPEDTAVYDCAAEGFRGYGYWGQGTQVTVSS	low polyreactivity
QVQLVESGGGLVQAGGGLRLSCAASGFTFTKYAMGLYRQAPGKERELVAAITSGTSTYYADSVKGRFTISRDNAKNTVYLQMNSLKPEDTAVYYCAAPLYGRYSYGYWGQGTQVTVSS	high polyreactivity
QVQLVDSGGGLVQAGGSLRLSCAASGIILYPYAMGWYRQAPGKERELVAAISWSGGSTYYADSVKGRFTISRDNAKNTVYLQMNSLKPEDTAVYYCAARPRRRYYGYDSWGQGTQVTVSS	high polyreactivity
QVQLVESGGGLVQAGGSLRLSCAPYGFTFSKYAMGWYRKAPGKERELVAAITYSGGTTYYADSVKGRFTISRDNAKNTVYLQMNSLKPEDTAVYYCAADTKRRSIRYDYWGQGTQVTVSS	high polyreactivity
QVQLVESGGGLVQAGVSLRLSCAASGSIFGGYAMGWYRQAPGKERELVAVISTRGGRTYYADSVKGRFTISRDNAKYTVYLQMNSLKPEDTAVYYCAANRQYTEYNYWGQGTQVTVSS	high polyreactivity
QVQLVESGGGLVQAGGSLRLSCAASGSTLLFYAMGWYRQAPGKEREFLATITFRGGSTYYADSVKGRFTISRDNAKNTVYLQMNSLKPEDTAVYYCNAGSRRGYYRSRPGGYCGQGTQVTVSS	high polyreactivity
QVQLVESGGGLVQAGGSLRLSFAASGSTFNVHAMGGYRQAPGKERELVAAITSSGGSTNYADSVKGRFTISRDTAKNSVYLQLNSLKPEDTAVYYCAADAIYFSRLNLGYDYWGQGTQVTVSS	low polyreactivity
QVQLLESGGGLVQAGGSLRLSCAASGRIFGVNAMGWYRQAPGKERELVAAISAGGGNTYYADSVKGRFTISRDNAKNSVYLQMNSLKPEDTAVYYCNVQRSLRMDYWGQGTQVTVSS	high polyreactivity

Sequence	polyreactivity (PSR sort gate)
QVQLVESGGGLVQAGGSLRLSCAASGSTFVSYAMGWYRQAPGKERELVAAISWSGGSTYYADSVKGRFTISRDNAKNTVYLQMNSLKTEDTAVYYCAAELDWWYDYWGQGTQVTVSS	high polyreactivity
QVQLVESGAALVQAAGSLRLSCAASGSIFTPYAMGWYRQAPGKERELVAGIRSSGGRTYYADSVKGRFTISRDNAKNTVYLQMNSLKPEDTAVSYCAADQDWYGFVIGFDYWGQGTQVTVSS	low polyreactivity
QVQLVESGGGLVQAGGSLRLSCAASGLTFSKNVMGWYRQAPGKERELVAAISGITSSTYYADSVKGRFTISRDNAKNTVYLQMNSLKPEDTAVYYCAADLSFSRPGRFGYWGQGTQVTVSS	high polyreactivity
QVQLVESGGGLVQAGGSLRLSCAASGITLAYNVMGWYRQAPGKERELVAGITRSGGSTYYADSVKGRFTISRDNAKNTVYLQMNSLKPEDTAVYYCAAGFTYLNYTPWYRFNYWGQGTQVTVSS	high polyreactivity
QVQLVESGGGLVQAGGSLRLSCAASVSTFDDNAMGWYIQAPGKERELVASITYRGGSTYYADSVKGRFTISRDNAKNTVYLQMNSLKPEDTAVYYCNADYTGAEYDYWGQGTQVTVSS	low polyreactivity
QVQLVESGGGLVQAGGSLRLSCAASGRIFLVNAMGWYRQAPGKERELVAAINGSGGSTYYADSVKGRFTISRDNAKNTVYLQMNSLKPEDTAVYYCAAKYVYSVGNYRYDYWGQGTQVTVSS	low polyreactivity
QVQLVESGGGLVQAGGSLRLSCAASGSTSLYYAMGWYRPAPGKEREFVAAITWSGGSTYYADSVKGRFTISRDNAKNTVYLQMNSLKPEDTAVYYCAARSYGYSAGYYWGQGTQVTVSS	high polyreactivity
QVQLVESGGGLVQAGGSLRLSCAASGFIFGVNAMGWYRQAPGKERDLVAAITRNGGSTYYADSVKGRFTISRDNAKNTVYLQMNSLKPEDTAVYYCAKYVRRAPSTFDVDYWGQGTQVTVSS	high polyreactivity
QVQLVESGGGLVQAGGSLRLSCAASGRTFDRYDMGWYRQAPGKERELVATISSSGGSTYYADSVKGRFTISRDNAKNTVYLQMNSLKPEDTAVYYCAADPSGDYWGQGTQVTVSS	low polyreactivity
QVQLVKSGGGLVQAGGSLRLSCAASGSTFNKYTMGWYRQAPWKERELVAAITSGDSTYYADSVKGRFTISRDNAKNTVYLQMNSLKPEDTAVYYCAKSLRAYRHVIYGKALYSWGQGTQVTVSS	low polyreactivity
QVQLVESGGGLVQAGGSLRLSCAASGSTLYYYAMGWYRQAPGKERELVAAISSGGRTYYADSVKGRFTISRDNAKNTVYLQMNSLKPEDTAVYYCNAVRYQKIFDYWGQGTQVTVSS	high polyreactivity
QVQLVESGGGLVQAGGSLRLSCAASGRIFYGYTMGWYRQAPGKERELVASITIRGSRTYYADSVKGRFTISRDNAKNTVYLQMNSLKPEDTAVYSCAADFVPARTVHRYDYWGQGTQVTVSS	low polyreactivity
QVQLVESGGRLVQAGGSLRLICAASGFIFWYYAMGWYRQAPGKERELVADISSGGSTNYADSVKGRFTISRDNAKNTVYLQMNSLKPEDTAVYYCAADTFRRDDYWGQGTQVTVSS	low polyreactivity
QVQLVESGGGLVHAGGSLRLSCAASGRTFKFYAMGWYRQAPGKERELVAAISGSGGTTRYADSVKGRFTISRDNAKNTVYLQMNSLKPEDTAVYYCAARPPGLALEYGYWGQGTQVTVSS	high polyreactivity
QVQLVESGGGLVQAGGSLRLSCSASGIIFGGNAMGWYRQAPGKERELVAGISSRGGSTYYADSVKGRFTISRDNAKNTVYLQMNSLKPEDTAVYYCAAVSSRRPGYEYYYWGQGTQVTVSS	high polyreactivity
QVQLVESGGGLVQAGGSLRLSCAASGIIFKGYDMGWYRQAPGKERELVAAISSGSTNYADSVKGRFTISRDNAKNTVYLQMNSLKPEDTAVYYCNKDSISYTWGYDYWGQGTQVTVSS	low polyreactivity
QVQLVESGRGLVQAGGSLRLSCAASGGTFGNNDMGWYRQAPGKERELVAAIRSAGTTYYADSVKGRFTISRDNAKNTVYLQMNSLKPEDTAVYYCNAYTTGYWSYGFQYYGEDYWGQGTQVTVSS	low polyreactivity

Source: the nanobody polyreactivity screen of Harvey et al. (2022)
